Here are results for two substances from patent US9040042B2, “Optimized antibodies that target HM1.24” (Xencor, Inc., priority 2006, dated 2015).

The target in experiment [1] is T1, human V158 FcγRIIIa (Homo sapiens, UniProt P08637, F176V). To be noted: read-out: affinity for human V158 FcγRIIIa, cited from earlier work.
The target in experiment [2] is T1, human V158 FcγRIIIa. Kind of experiment: Binding of human WT IgG1 to human V158 FcγRIIIa (Biacore, calorimetry). The note with it: present study; read-out: affinity for human V158 FcγRIIIa. As to the method:
(§1) This is consistent with the literature which indicate that binding is approximately 200-500 nM, as determined by Biacore (210 nM as shown in Okazaki et al, 2004, J Mol Bio 336:1239-49; 250 nM as shown in Lazar et al, Proc Natl Acad Sci USA 103(11):4005-4010) and calorimetry (530 nM, Okazaki et al, 2004, J Mol Bio 336:1239-49).
Background: Surface plasmon resonance follows binding to a sensor surface in real time, without labels.

Experiment [3] addresses T2, human F158 FcγRIIIa (Homo sapiens, UniProt P08637). Kind of experiment: Binding of human WT IgG1 to human F158 FcγRIIIa (Biacore, calorimetry). To be noted: present study; binding lower than the 5 uM cutoff applied; read-out: affinity for human F158 FcγRIIIa. As for the experimental part: as §1
In experiment [4] the target is T2, human F158 FcγRIIIa. To be noted: read-out: affinity for human F158 FcγRIIIa, cited from earlier work.
The next experiment has as its target T3, CD20 (Homo sapiens, UniProt P11836).
T3 construct: endogenous in cells; host or cells: patients' own cells (clinical treatment, reported from the literature)
T3 sequence (P11836 1-297): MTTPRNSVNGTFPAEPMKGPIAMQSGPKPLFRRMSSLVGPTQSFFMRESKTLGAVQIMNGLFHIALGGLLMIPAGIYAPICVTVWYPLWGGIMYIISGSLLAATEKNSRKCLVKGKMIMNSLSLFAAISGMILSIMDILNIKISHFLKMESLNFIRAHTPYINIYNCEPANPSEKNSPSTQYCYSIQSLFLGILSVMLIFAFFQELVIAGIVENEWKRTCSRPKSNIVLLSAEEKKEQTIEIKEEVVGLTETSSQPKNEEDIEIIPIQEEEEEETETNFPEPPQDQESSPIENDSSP
The note with it: cited from earlier work.

Where [5] appears, read: calorimetry, Okazaki et al 2004.

pKd: −log10 of the molar value. Several values for one entry are separate records, joined by “and”; a condition that tells them apart may be missing. Identical values can stand only once. Like-named read-outs stand apart in the source and are kept apart here. A value given as a limit tells only on which side of the number the result lay.

T2 sequence (P08637 17-208 limits assumed): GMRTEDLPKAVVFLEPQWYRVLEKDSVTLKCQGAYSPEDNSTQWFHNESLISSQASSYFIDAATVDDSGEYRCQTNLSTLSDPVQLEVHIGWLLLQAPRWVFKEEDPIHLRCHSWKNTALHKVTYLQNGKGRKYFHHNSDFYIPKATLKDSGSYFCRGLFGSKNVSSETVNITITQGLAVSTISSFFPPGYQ
T1 sequence (P08637 17-208 F176V limits assumed): as the sequence (P08637 17-208 limits assumed) above, with F160V counted along it

With “human WT IgG1: Human wild type IgG1 immunoglobulin, reference for Fc receptor binding”, the pKd was 6.68 and 6.60 with human V158 FcγRIIIa [1] (Biacore, Okazaki et al 2004, Lazar et al); 6.28 in the experiment with human V158 FcγRIIIa [1] (setting [5]); 6.30 to 6.70 in the experiment with human V158 FcγRIIIa [1] (literature overall); 6.12 with human V158 FcγRIIIa [1] (one study, Ferrara et al 2006); roughly 6.62 with human V158 FcγRIIIa [2]; less than 5.30 with human F158 FcγRIIIa [3]. Further, the pKd with human F158 FcγRIIIa [4] (Biacore, Ferrara et al 2006) was 5.30; with human F158 FcγRIIIa [4] (setting [5]), 5.57; with human F158 FcγRIIIa [4] (literature overall), 5.30 to 5.52.

For the substance “Rituxan: anti-CD20 antibody Rituxan® (rituximab)”, in the experiment with CD20 (patients homozygous or heterozygous for FcγRIIIA 158F, Carton 2002, Weng 2003), the clinical efficacy entry is listed as “minimally effective”. Also, the clinical response result with CD20 (patients with FcγRIIIA 158 V/V homozygous genotype, Dall'Ozzo et al. 2004) was “better clinical response”.
